Results reported in CN114395042A (BEIJING COONOXIN ZONGCHENG SCIENCE AND TECH CO, dated 2022).
Substitutions are numbered along the chain they refer to.

Experiments:
hIL-33WT = target: T1, hIL-33WT (human, UniProt O95760 112-270, limits assumed); assay: cell-based or functional assay
T1 sequence (looked up): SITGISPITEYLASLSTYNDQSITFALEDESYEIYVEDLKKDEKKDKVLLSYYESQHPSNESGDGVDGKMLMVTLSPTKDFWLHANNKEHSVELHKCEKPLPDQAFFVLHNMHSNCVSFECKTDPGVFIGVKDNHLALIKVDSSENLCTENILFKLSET

人IL33-his重组蛋白 [1] = target: T2, 人IL33-his重组蛋白 (human, UniProt O95760 112-270); assay: BLI (ForteBio), Example 3
T2 construct: range 112-270; also called human IL-33; not shown: his tag
T2 sequence (looked up): T1 sequence (looked up)

人IL33-his重组蛋白 [2] = target: T2, 人IL33-his重组蛋白; assay: BLI (ForteBio), antibody captured on AHC probe, IL33-his 15-60 nM in solution, 1:1 fit

B1: h25D8H1L1 (antibody, human IgG1, kappa, V domains shown)
VH: QVQLVQSGAEVKKPGASVKLSCKTSGYTFTSYWIQWVRQAPGQGLEWIGEIFPGTGTTYYNQKFQGRATLTTDTSTTTAYMELSSLRSEDTAVYFCARRIRDYYGSNYFDYWGQGTTLTVSS
VL: DIQLTQSPSSMSASVGDRVTITCRASSSVSYMHWFQQKPGKAPKLWIYRTSNLQSGVPSRFSGSGSGTDYTLTISSMQPEDFATYYCLQRSTYLFMFGQGTKLELKR
notes: also called 人源化抗体h25D8H1L1; hzVH1/hzVL1
hIL-33WT
  IC50 of inhibition of IL-33-stimulated IL-5 production by KU812 cells: 0.677 mg/L
人IL33-his重组蛋白 [1]
  Kd: 0.61 nM
  koff: 0.000366 s⁻¹
  kon: 600000 M⁻¹ s⁻¹

B2: ANB020 (antibody, V domains shown)
VH: QVQLMQSGAEVKKPGASVKVSCKASGYTFTSYWMHWVRQAPGQGLEWMGTIYPRNSNTDYNQKFKARVTMTRDTSTSTVYMELSSLRSEDTAVYYCARPLYYYLTSPPTLFWGQGTLVTVSS
VL: DIQLTQSPSFLSASVGDRVTLTCKASQDVGTAVAWTQQKPGKAPKLLIYWASTRHTGVPSRFSGSGSGTEFTLTISSLQPEDFATYYCQQAKTYPFTFGSGTKLEIK
notes: The variable regions were cloned into vectors holding human IgG1 light and heavy chain constant regions; also called 对照抗体ANB020; 对照抗体
hIL-33WT
  IC50 of inhibition of IL-33-stimulated IL-5 production by KU812 cells: 5.82 mg/L
人IL33-his重组蛋白 [2]
  Kd: 6.7 nM
  koff: 0.000419 s⁻¹
  kon: 62500 M⁻¹ s⁻¹

B3: ch25D8 (antibody, human IgG1, kappa, V domains shown)
VH: QVQLQQSGTELVKPGASVKLSCKTSGYTFTSYWIQWVKQRPGQGLGWIGEIFPGTGTTYYNEKFKGKATLTTDTSSTTAYMQLSSLTSEDSAVYFCARRIRDYYGSNYFDYWGQGTTLTVSS
VL: QIVLTQSPAIMSASPGEKVTITCSASSSVSYMHWFQQKPGTSPKLWIYRTSNLASGVPDRFSGSGSGTSYSLTISRMEAEDAATYYCLQRSTYLFMFGAGTKLELKR
notes: also called 嵌合抗体ch25D8; 25D8分子的嵌合抗体
人IL33-his重组蛋白 [1]
  Kd: 0.617 nM
  koff: 0.000472 s⁻¹
  kon: 766000 M⁻¹ s⁻¹
人IL33-his重组蛋白 [2]
  Kd: 0.9 nM
  koff: 7.53e-05 s⁻¹
  kon: 83600 M⁻¹ s⁻¹

B4: ch25H12 (antibody, human IgG1, kappa, V domains shown)
VH: EVQLQQSGAELVKPGASVKLSCTASGFNIKDTYIHWVKQRPEQGLEWIGRIDPTADNTKYHPKFQGKATLTADTSSNTAYLQLSSLTSEDTAVYFCARGSSYALDYWGQGTSVTVSS
VL: B3 VL with L88Q, T92S
notes: Human-mouse chimeric IgG1/kappa expressed in HEK293 and purified on Protein A; also called 嵌合抗体ch25H12
人IL33-his重组蛋白 [2]
  Kd: 77.7 nM
  koff: 0.000619 s⁻¹
  kon: 7970 M⁻¹ s⁻¹
